Measurements from US20250304711A1, “Methods and Compositions for Treating Obesity, Obesity-Related Diseases, Fatty Liver and Fatty Liver Associated Diseases with Anti-CD24 Agents” (The Board of Trustees of the Leland Stanford Junior …, priority 2022, published 2025).

Legend:
[1] = system: Huh7D cells; test: Steatosis in Huh7D cells cultured in fatty medium, Nile Red stain; format: cell-based; settings: Huh7D cells 4 days in fatty medium, then treated 3 days in fatty medium; Nile Red fluorescence; agents at 1 μg/mL unless otherwise specified
Method: FIG. 1A-1D: Relative lipid accumulation of Huh 7D cells when cultured on fatty medium and treated with various anti-CD24 agents. Agents were added at 1 μg/mL unless otherwise specified as in the Fab. MOSW1, SWA11, ML5, SN3: mouse anti human CD24 antibodies; MOSW2: SWA11 antibody with point mutations to silent complement activity; MOSW3: SWA11 antibody with point mutations to silent complement activity, antibody-dependent cytotoxicity (ADCC) and antibody-dependent cellular phagocytosis (ADCP); Fab: Fab of SWA11 antibody, G7s: scFv against human and mouse CD24; TW2, TW6, V2, V3, V4, V6, V7, V8, V9, V10, V14, V15, V16: different humanized anti-CD24 antibodies; hIgG: human IgG isotype control. FIG. 1A: anti-steatosis activity of SWA-11, Fab, TW2, TW6 and G7S; FIG. 1B: anti-steatosis activity of V2, V3, V4, V6, V7, V8, V9, V10, V14, V15, V16; FIG. 1C: anti-steatosis of SWA11, Fab, ML5, SN3, MOSW1, MOSW2, MOSW3; FIG. 1D: anti-steatosis of 3 small molecules that bind CD24.
Specifically, Huh7 cells, which are liver hepatoma cells, were cultured in 1% DMSO (Huh7D cells) and then supplemented with fatty medium to induce steatosis. […] To determine the degree of steatosis, cells were stained with 1 mg/ml Nile Red solution (Sigma Aldrich) in cell culture medium for 15 mins at 37° C. and florescence signal was measured.

[2] = system: NSG mice with humanized livers; test: NSG mice with humanized livers on HFD: graft survival, human albumin, CT; format: in vivo, mouse
Method: In order to determine the effect of anti-CD24 agent in a more physiologic model of human fatty liver disease, we used a mouse model in which human liver can be engrafted. Briefly, NSG mice with humanized livers were prepared using the RAAPID-TKG method. These mice contain chimeric livers that harbor both murine and human hepatocytes and the degree of human liver engraftment can be ascertained by measuring serum human albumin. 2 mice with similar degrees of human liver engraftment, as measured by baseline serum human albumin, were placed on HFD for 6 weeks and then treated with either IgG control or an anti-CD24 antibody—which we term MOSW3—whose Fc has been engineered to contain point mutations that abrogate ADCC, ADCP, as well as compliment binding activity, i.e., Fc-silent antibody. Antibodies were dosed at 25 μg twice a week.

Molecule	anti-steatosis efficacy (relative lipid accumulation) [1]	steatosis on liver CT scan ([2]; 3 weeks post treatment, IgG treated mouse vs MOSW3 treated mouse)	human liver graft survival ([2]; HFD 6 weeks, then 25 μg twice a week, vs IgG control)	serum human albumin ([2]; humanized-liver NSG mice, HFD 6 weeks, then 25 μg twice a week, weekly serum for 3 weeks, vs IgG control)
O=C(O)c1ccccc1C(=O)c1cn(-c2ccc(F)cc2)[n+]([O-])n1 [A]	anti-steatosis efficacy			
Cc1cccc(-n2nc([N+](=O)[O-])c(NCc3ccc(F)cc3)[n+]2[O-])c1 [B]	anti-steatosis efficacy			
MOSW3: SWA11 mouse IgG2a, C1q and Fc silenced (L234A, L235A, K320A, K322A, P329G); SEQ ID NO: 17 and 34 (antibody) heavy: DVQLQESGPDLVKPSQSLSLTCTVTGYSITSGYTWHWIRQFPGNTVEWMGYIQYTGSTRYNPALRGRLSISRDTSKNQFFLQLISVTTADTGTYFCARGTTASFDYWGQGTTLTVASAKTTAPSVYPLAPVCGDTTGSSVTLGCLVKGYFPEPVTLTWNSGSLSSGVHTFPAVLQSDLYTLSSSVTVTSSTWPSQSITCNVAHPASSTKVDKKIEPRGPTIKPCPPCKCPAPNAAGGPSVFIFPPKIKDVLMISLSPIVTCVVVDVSEDDPDVQISWFVNNVEVHTAQTQTHREDYNSTLRVVSALPIQHQDWMSGKEFACAVNNKDLGAPIERTISKPKGSVRAPQVYVLPPPEEEMTKKQVTLTCMVTDFMPEDIYVEWTNNGKTELNYKNTEPVLDSDGSYFMYSKLRVEKKNWVERNSYSCSVVHEGLHNHHTTKSFSRTPGK light: DIVMSQSPSSLNVSVGEKVTMRCRSSQSLLYSSDQKNYLTWYQQKPGQSPKLLISWASTRASGVPDRFTGSGSGTDFTLTISSVKAEDLGVYYCQQYFIYPLTFGVGTKLGLKRADAAPTVSIFPPSSEQLTSGGASVVCFLNNFYPKDINVKWKIDGSERQNGVLNSWTDQDSKDSTYSMSSTLTLTKDEYERHNSYTCEATHKTSTSPIVKSFNRNEC		The IgG treated mouse showed higher level of steatosis (FIG. 9B) compared to the MOSW3 treated mouse	longer graft survival	maintenance of serum human albumin
